Reference: the RNAGym collection of RNA variant scans (doi:10.7554/elife.80360)

B1: Hairpin Ribozyme (parent)
chain: GUCCUCUUUCACGUGCGCGUGAAAGAGAGAAGUGAACCAGAGAAACACACGUUGUGGUAUAUUACCUGGUA

Variants of: B1
Assay: self-cleavage, relative activity (ratio to wild type); higher = more cleavage; co-transcriptional

Variant | self-cleavage
GUCCUCUUUCACGUGCGCGUGAAAGAGAGAAGUGAACCAGGGAAACACACGUCGUGGUAUAUUACCUGGUA [A41G U53C] | 0.819
GUCCUCUUUCACGUGCGCGUGAAAGAGAGAAGUGAACCAGGGAAACACACGUUGCGGUAUAUUACCUGGUA [A41G U55C] | 0.23
GUCCUCUUUCACGUGCGCGUGAAAGAGAGAAGUGAACCAGGGAAACACACGUUGUGGAAUAUUACCUGGUA [A41G U58A] | 0.46
GUCCUCUUUCACGUGCGCGUGAAAGAGAGAAGUGAACCAGGGAAACACACGUUGUGGCAUAUUACCUGGUA [A41G U58C] | 0.911
GUCCUCUUUCACGUGCGCGUGAAAGAGAGAAGUGAACCAGGGAAACACACGUUGUGGUACAUUACCUGGUA [A41G U60C] | 1.23
GUCCUCUUUCACGUGCGCGUGAAAGAGAGAAGUGAACCAGGGAAACACACGUUGUGGUAUAUCACCUGGUA [A41G U63C] | 0.0946
GUCCUCUUUCACGUGCGCGUGAAAGAGAGAAGUGAACCAGGGAAACACACGUUGUGGUAUAUGACCUGGUA [A41G U63G] | 0.248
GUCCUCUUUCACGUGCGCGUGAAAGAGAGAAGUGAACCAGGGAAACACACGUUGUGGUAUAUUACCCGGUA [A41G U67C] | 0.483
GUCCUCUUUCACGUGCGCGUGAAAGAGAGAAGUGAACCAGGGAAACACACGUUGUGGUAUAUUACCGGGUA [A41G U67G] | 0.5
GUCCUCUUUCACGUGCGCGUGAAAGAGAGAAGUGAACCAGGGAAACACACGUUGUGGUAUAUUACCUGGCA [A41G U70C] | 0.981
GUCCUCUUUCACGUGCGCGUGAAAGAGAGAAGUGAACCAGGGAAACACACGUUGUGGUAUAUUACCUGGGA [A41G U70G] | 0.677
GUCCUCUUUCACGUGCGCGUGAAAGAGAGAAGUGAACCAGUGAAUCACACGUUGUGGUAUAUUACCUGGUA [A41U A45U] | 0.0714
GUCCUCUUUCACGUGCGCGUGAAAGAGAGAAGUGAACCAGUGAAACGCACGUUGUGGUAUAUUACCUGGUA [A41U A47G] | 0.207
GUCCUCUUUCACGUGCGCGUGAAAGAGAGAAGUGAACCAGUGAAACUCACGUUGUGGUAUAUUACCUGGUA [A41U A47U] | 0.207
GUCCUCUUUCACGUGCGCGUGAAAGAGAGAAGUGAACCAGUGAAACACACGUUGUGGUCUAUUACCUGGUA [A41U A59C] | 0.158
GUCCUCUUUCACGUGCGCGUGAAAGAGAGAAGUGAACCAGUGAAACACACGUUGUGGUGUAUUACCUGGUA [A41U A59G] | 0.255
GUCCUCUUUCACGUGCGCGUGAAAGAGAGAAGUGAACCAGUGAAACACACGUUGUGGUAUAUUACCUGGUC [A41U A71C] | 1.58
GUCCUCUUUCACGUGCGCGUGAAAGAGAGAAGUGAACCAGUGAAACACACGUUGUGGUAUAUUACCUGGUG [A41U A71G] | 1.14
GUCCUCUUUCACGUGCGCGUGAAAGAGAGAAGUGAACCAGUGAAAAACACGUUGUGGUAUAUUACCUGGUA [A41U C46A] | 0.0476

Variant | self-cleavage
GUCCUCUUUCACGUGCGCGUGAAAGAGAGAAGUGAACCAGUGAAACAGACGUUGUGGUAUAUUACCUGGUA [A41U C48G] | 0.241
GUCCUCUUUCACGUGCGCGUGAAAGAGAGAAGUGAACCAGUGAAACACAUGUUGUGGUAUAUUACCUGGUA [A41U C50U] | 0.781
GUCCUCUUUCACGUGCGCGUGAAAGAGAGAAGUGAACCAGUGAAACACACGUUGUGGUAUAUUAACUGGUA [A41U C65A] | 0.756
GUCCUCUUUCACGUGCGCGUGAAAGAGAGAAGUGAACCAGUGAAACACACGUUGUGGUAUAUUAUCUGGUA [A41U C65U] | 1.19
GUCCUCUUUCACGUGCGCGUGAAAGAGAGAAGUGAACCAGUGAAACACACGUUGUGGUAUAUUACAUGGUA [A41U C66A] | 0.271
GUCCUCUUUCACGUGCGCGUGAAAGAGAGAAGUGAACCAGUGAAACACACGUUGUGGUAUAUUACGUGGUA [A41U C66G] | 0.172
GUCCUCUUUCACGUGCGCGUGAAAGAGAGAAGUGAACCAGUUAAACACACGUUGUGGUAUAUUACCUGGUA [A41U G42U] | 0.325
GUCCUCUUUCACGUGCGCGUGAAAGAGAGAAGUGAACCAGUGAAACACACCUUGUGGUAUAUUACCUGGUA [A41U G51C] | 1.27
GUCCUCUUUCACGUGCGCGUGAAAGAGAGAAGUGAACCAGUGAAACACACGUUCUGGUAUAUUACCUGGUA [A41U G54C] | 0.891
GUCCUCUUUCACGUGCGCGUGAAAGAGAGAAGUGAACCAGUGAAACACACGUUGUGAUAUAUUACCUGGUA [A41U G57A] | 0.145
GUCCUCUUUCACGUGCGCGUGAAAGAGAGAAGUGAACCAGUGAAACACACGUUGUGCUAUAUUACCUGGUA [A41U G57C] | 0.178
GUCCUCUUUCACGUGCGCGUGAAAGAGAGAAGUGAACCAGUGAAACACACGUUGUGGUAUAUUACCUCGUA [A41U G68C] | 0.262
GUCCUCUUUCACGUGCGCGUGAAAGAGAGAAGUGAACCAGUGAAACACACGUUGUGGUAUAUUACCUUGUA [A41U G68U] | 0.423
GUCCUCUUUCACGUGCGCGUGAAAGAGAGAAGUGAACCAGUGAAACACACGAUGUGGUAUAUUACCUGGUA [A41U U52A] | 1.23
GUCCUCUUUCACGUGCGCGUGAAAGAGAGAAGUGAACCAGUGAAACACACGCUGUGGUAUAUUACCUGGUA [A41U U52C] | 1.11
GUCCUCUUUCACGUGCGCGUGAAAGAGAGAAGUGAACCAGUGAAACACACGUCGUGGUAUAUUACCUGGUA [A41U U53C] | 1.25
GUCCUCUUUCACGUGCGCGUGAAAGAGAGAAGUGAACCAGUGAAACACACGUUGAGGUAUAUUACCUGGUA [A41U U55A] | 0.808
GUCCUCUUUCACGUGCGCGUGAAAGAGAGAAGUGAACCAGUGAAACACACGUUGCGGUAUAUUACCUGGUA [A41U U55C] | 0.762
GUCCUCUUUCACGUGCGCGUGAAAGAGAGAAGUGAACCAGUGAAACACACGUUGGGGUAUAUUACCUGGUA [A41U U55G] | 0.485
